# Measured values reported in the supplement of paper PMC9112550, “Optimization of the antimicrobial peptide Bac7 by deep mutational scanning” (BMC Biology, 2022).
# System: Escherichia coli TOP10
# Test: shrunken log2 fold change of peptide-encoding DNA abundance (4.5 h post-induction vs induction); higher = less antimicrobial activity (less host growth inhibition)
# Conditions: time post-induction: 4.5 h; library: site-saturation at positions 5, 18, 19, 20
# 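Further: peptides expressed intracellularly from a pBAD plasmid library in pooled LB shake-flask culture, induced with 0.3% L-arabinose, DNA abundance read by NGS, three biological replicates, DESeq2 with apeglm shrinkage.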
row,Sequence,shrunken log2 fold change
1,RRIRRRPPRLPRPRPRPQTDPRP,0.13
2,RRIRRRPPRLPRPRPRPQTGPRP,0.0354
3,RRIRRRPPRLPRPRPRPQVGPRP,0.149
4,RRIRRRPPRLPRPRPRPQYQPRP,-0.207
5,RRIRRRPPRLPRPRPRPQYWPRP,-0.147
6,RRIRRRPPRLPRPRPRPRAAPRP,0.833
7,RRIRRRPPRLPRPRPRPRCTPRP,0.0974
8,RRIRRRPPRLPRPRPRPRGEPRP,0.739
9,RRIRRRPPRLPRPRPRPRHAPRP,0.746
10,RRIRRRPPRLPRPRPRPRHDPRP,0.0104
11,RRIRRRPPRLPRPRPRPRKMPRP,0.163
12,RRIRRRPPRLPRPRPRPRLGPRP,0.76
13,RRIRRRPPRLPRPRPRPRMLPRP,0.486
14,RRIRRRPPRLPRPRPRPRMNPRP,0.545
15,RRIRRRPPRLPRPRPRPRMWPRP,0.431
16,RRIRRRPPRLPRPRPRPRNYPRP,0.143
17,RRIRRRPPRLPRPRPRPRQHPRP,0.288
18,RRIRRRPPRLPRPRPRPRRQPRP,0.554
19,RRIRRRPPRLPRPRPRPRRVPRP,0.347
20,RRIRRRPPRLPRPRPRPRSDPRP,0.323
21,RRIRRRPPRLPRPRPRPRSNPRP,0.224
22,RRIRRRPPRLPRPRPRPRTDPRP,0.438
23,RRIRRRPPRLPRPRPRPRTVPRP,0.693
24,RRIRRRPPRLPRPRPRPRWEPRP,0.0983
25,RRIRRRPPRLPRPRPRPRWFPRP,0.524

row,Sequence,shrunken log2 fold change
1,RRIRRRPPRLPRPRPRPRWHPRP,0.353
2,RRIRRRPPRLPRPRPRPRYAPRP,0.284
3,RRIRRRPPRLPRPRPRPRYIPRP,-0.12
4,RRIRRRPPRLPRPRPRPSAIPRP,0.0689
5,RRIRRRPPRLPRPRPRPSAKPRP,0.0742
6,RRIRRRPPRLPRPRPRPSAMPRP,0.378
7,RRIRRRPPRLPRPRPRPSASPRP,0.101
8,RRIRRRPPRLPRPRPRPSCAPRP,0.452
9,RRIRRRPPRLPRPRPRPSCHPRP,-0.0344
10,RRIRRRPPRLPRPRPRPSDQPRP,0.0918
11,RRIRRRPPRLPRPRPRPSERPRP,-0.0993
12,RRIRRRPPRLPRPRPRPSFLPRP,-0.268
13,RRIRRRPPRLPRPRPRPSGRPRP,0.0215
14,RRIRRRPPRLPRPRPRPSHVPRP,0.151
15,RRIRRRPPRLPRPRPRPSHYPRP,-0.131
16,RRIRRRPPRLPRPRPRPSKIPRP,0.0224
17,RRIRRRPPRLPRPRPRPSKQPRP,-0.118
18,RRIRRRPPRLPRPRPRPSLFPRP,0.196
19,RRIRRRPPRLPRPRPRPSLIPRP,-0.118
20,RRIRRRPPRLPRPRPRPSMVPRP,-0.298
21,RRIRRRPPRLPRPRPRPSNIPRP,-0.528
22,RRIRRRPPRLPRPRPRPSPPPRP,0.435
23,RRIRRRPPRLPRPRPRPSQDPRP,0.112
24,RRIRRRPPRLPRPRPRPSQHPRP,0.0591
25,RRIRRRPPRLPRPRPRPSQIPRP,0.092

row,Sequence,shrunken log2 fold change
1,RRIRRRPPRLPRPRPRPSQKPRP,-0.00949
2,RRIRRRPPRLPRPRPRPSQYPRP,0.0176
3,RRIRRRPPRLPRPRPRPSTFPRP,-0.02
4,RRIRRRPPRLPRPRPRPSVFPRP,0.141
5,RRIRRRPPRLPRPRPRPSVTPRP,-0.041
6,RRIRRRPPRLPRPRPRPSWGPRP,-0.0778
7,RRIRRRPPRLPRPRPRPSWMPRP,-0.324
8,RRIRRRPPRLPRPRPRPSYCPRP,-0.0727
9,RRIRRRPPRLPRPRPRPSYPPRP,-0.115
10,RRIRRRPPRLPRPRPRPSYYPRP,-0.0156
11,RRIRRRPPRLPRPRPRPTCMPRP,0.315
12,RRIRRRPPRLPRPRPRPTEEPRP,1.07
13,RRIRRRPPRLPRPRPRPTELPRP,0.42
14,RRIRRRPPRLPRPRPRPTFRPRP,0.0132
15,RRIRRRPPRLPRPRPRPTGDPRP,0.0418
16,RRIRRRPPRLPRPRPRPTHWPRP,0.988
17,RRIRRRPPRLPRPRPRPTIAPRP,0.0702
18,RRIRRRPPRLPRPRPRPTIGPRP,-0.229
19,RRIRRRPPRLPRPRPRPTIIPRP,-0.159
20,RRIRRRPPRLPRPRPRPTKLPRP,0.111
21,RRIRRRPPRLPRPRPRPTKYPRP,-0.198
22,RRIRRRPPRLPRPRPRPTLFPRP,0.826
23,RRIRRRPPRLPRPRPRPTPLPRP,0.744
24,RRIRRRPPRLPRPRPRPTQDPRP,1.87
25,RRIRRRPPRLPRPRPRPTQHPRP,0.691
